Measurements published in patent US20040005688.

How the values were obtained:
[1] = biological target: T1, GST-DM5 (GST fusion of the 36 amino acid DM5 segment of Dsh, amino acids 214-249)
T1 chain: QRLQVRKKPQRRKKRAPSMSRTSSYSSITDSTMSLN

[2] = biological target: T2, Dishevelled (Dsh) protein, endogenous, from Drosophila embryos and Clone-8 cells
T2 chain: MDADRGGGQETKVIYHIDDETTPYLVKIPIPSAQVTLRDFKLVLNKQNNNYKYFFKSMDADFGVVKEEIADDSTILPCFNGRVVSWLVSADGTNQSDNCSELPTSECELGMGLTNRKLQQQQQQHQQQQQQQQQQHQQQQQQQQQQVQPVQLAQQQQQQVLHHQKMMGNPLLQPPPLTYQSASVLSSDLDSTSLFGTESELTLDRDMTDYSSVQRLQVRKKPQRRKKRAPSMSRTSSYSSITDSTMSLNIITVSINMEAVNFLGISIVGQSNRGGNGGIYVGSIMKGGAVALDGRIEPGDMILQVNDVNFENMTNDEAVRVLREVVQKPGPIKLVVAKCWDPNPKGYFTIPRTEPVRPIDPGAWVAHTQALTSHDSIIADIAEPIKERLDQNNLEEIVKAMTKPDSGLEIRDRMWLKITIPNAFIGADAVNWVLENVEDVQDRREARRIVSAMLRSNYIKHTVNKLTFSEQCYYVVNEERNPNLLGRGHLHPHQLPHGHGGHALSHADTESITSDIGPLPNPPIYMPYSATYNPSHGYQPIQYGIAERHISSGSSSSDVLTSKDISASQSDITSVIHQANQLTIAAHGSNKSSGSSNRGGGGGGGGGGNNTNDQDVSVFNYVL

B1: Dishevelled Associated Kinase (DAK), endogenous kinase activity from Drosophila embryo and Clone-8 cell lysates (protein)
chain: MSTAMRTTLQSVPEALPADSVSNGTASNVAAPAAPVSSATNAVPPLAAVSSTTATYATNSISTSSHSVKDQQQQQQQQQHDSANANIVSLPPTTTPVANTNTMMPIVTSSNSATSNSTAATPTPASGAAATGGVGSVSQGPATVSASAANTNHSHQHSHQHHHHVANNMTTDGARLSSNNSAVVASSAINHHHHHTPGSGVAPTVNKNVLSTHSAHPSAIKQRTSSAKGSPNMQMRSSAPMRWRATEEHIGKYKLIKTIGKGNFAKVKLAKHLPTGKEVAIKIIDKTQLNPGSLQKLFREVRIMKMLDHPNIVKLFQVIETEKTLYLIMEYASGGEVFDYLVLHGRMKEKEARVKFRQIVSAVQYCHQKRIIHRDLKAENLLLDSELNIKIADFGFSNEFTPGSKLDTFCGSPPYAAPELFQGKKYDGPEVDVWSLGVILYTLVSGSLPFDGSTLRELRERVLRGKYRIPFYMSTDCENLLRKFLVLNPAKRASLETIMGDKWMNMGFEEDELKPYIEPKADLADPKRIEALVAMGYNRSEIEASLSQVRYDDVFATYLLLGRKSTDPESDGSRSGSSLSLRNISGNDAGANAGSASVQSPTHRGVHRSISASSTKPSRRASSGAETLRVGPTNAAATVAAATGAVGAVNPSNNYNAAGSAADRASVGSNFKRQNTIDSATIKENTARLAAQNQRPASATQKMLTTADTTLNSPAKPRTATKYDPTNGNRTVSGTSGIIPRRSTTLYEKTSSTEKTNVIPAETKMASAVKSSRHFPRNVPSRSTFHSGQTRARNNTALEYSGTSGASGDSSHPGRMSFFSKLSSRFSKRPNQ
In the case of B1, the in-gel kinase assay [1] is reported as “A polypeptide of 110 kDa appeared to account for the major DAK activity and two polypeptides of approximately 125 and 64 kDa appeared to represent minor activity” and the “in vitro kinase assay of Dsh immunoprecipitates” value [2] is reported as “Immunoprecipitated Dsh was phosphorylated in this assay”.
